Entries after “also recorded” stand apart in the source; their conditions may differ. No end group written: not given here.
Experiments:
Cx43 hemichannels = molecular target: T1, Cx43 hemichannels (Rattus norvegicus, UniProt P08050); test: Ethidium (Etd) dye uptake in astrocytes; format: cell-based; details: 10 min preincubation
T1 construct: endogenous in cells; host or cells: primary hippocampal astrocytes of newborn (PN1) rats
Experimental: F. Immunohistochemistry: Brain slices previously fixed in buffered 4% paraformaldehyde and maintained in 30% sucrose were mounted in gelatin coated glass slides. After rinsing with PBS, slices were blocked and permeabilized with 1% bovine serum albumin (BSA, Sigma-Aldrich), and 3% Triton X-100 in PBS for 1 h at room temperature. After rinsing again, sections were incubated overnight at 4° C. with the primary anti-Cx43 antibody (Sigma). Afterwards, sections were rinsed with PBS and incubated for 1 h at 37° C. with Alexa Fluor® 488-conjugated secondary antibody. […]
G.2. […] H. Dye uptake: For single image visualization of dye uptake, astrocytes were bathed in recording solution [in mM: NaCl (148), KCl (5), CaCl2 (1.8), MgCl2 (1), glucose (5), HEPES (5), pH=7.4] containing 5 μM ethidium (Etd) (Sigma-Aldrich, St-Louis, Mo.), and fluorescence intensity was recorded for 10 min in selected cells (ROI, regions of interest). […] Metafluor software (version 6.2R5, Universal Imaging Co., Downingtown, Pa., USA) was used for off-line image analysis and fluorescence quantification.
For data representation, the average of two independent background fluorescence intensity measurements (FB, expressed as arbitrary units, AU) was subtracted from the fluorescence intensity in each cell (F1). […] Slopes of dye uptake were calculated using Microsoft Excel software and expressed as AU/min. […]

[1] = molecular target: Cx43 gap junction channel (Homo sapiens, UniProt P17302); details: cited from earlier work
Cx43 gap junction channel, sequence (P17302 whole entry): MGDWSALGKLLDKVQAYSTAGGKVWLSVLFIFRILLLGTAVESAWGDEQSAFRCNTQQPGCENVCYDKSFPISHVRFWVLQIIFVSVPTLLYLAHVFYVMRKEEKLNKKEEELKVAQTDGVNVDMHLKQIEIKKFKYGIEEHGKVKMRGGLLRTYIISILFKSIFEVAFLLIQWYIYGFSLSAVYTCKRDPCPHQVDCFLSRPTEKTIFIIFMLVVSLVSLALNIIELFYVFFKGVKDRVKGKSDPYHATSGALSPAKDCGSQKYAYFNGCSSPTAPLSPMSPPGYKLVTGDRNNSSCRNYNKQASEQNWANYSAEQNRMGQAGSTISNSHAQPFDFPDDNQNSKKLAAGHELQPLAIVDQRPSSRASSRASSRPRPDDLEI

T1 sequence (P08050 whole entry): as the sequence (P17302 whole entry) above, with D124E, I164V, K243R, S251T, A253P, A257S, Q263P, S344A, L347V counted along it

YGRKKRRQRRRDGANVDMHLKQIEIKKFKYGIEEHGK [TAT-Cx43L2, synthetic cell-permeable peptide corresponding to the Cx43L2 region (aa 119-144) of the cytoplasmic loop of Cx43]
hemichannel activity (Etd uptake) (Cx43 hemichannels; control conditions): blocked astrocyte hemichannel activity; also recorded: inhibited hemichannel activity
hemichannel activity (Etd uptake) (Cx43 hemichannels; divalent cation-free solution (DCFS)): complete inhibition of hemichannel activity; also recorded: reduced Etd uptake to the same level as in control cells
effect on Cx43 gap junction channel communication, previously shown [1]: without affecting Cx43 gap junction channel communication

Source: patent US9879058B2, “Use of compounds that selectively modulate astrocytic release of substances through hemichannels of connexins and pannexins, without influencing gap junctions, for the treatment of psychiatric disorders” (Universidad Andres Bello, priority 2012, dated 2018)
